From patent publication US20050249739A1

Target: S protein of GD03T on pseudotyped HIV (SARS-CoV (GD03T isolate))
Test: cell-based or functional assay

80R IgG1 (antibody)
S-protein-pseudotyped HIV luciferase infection of ACE2-expressing 293T cells: > 50 µg/mL
